Sequences and labels used below:
B1: DVD497 DLL4 arm (antibody, V domains shown)
VH: EVQLQQSGPELVKPGASVKMSCKASGYTFTSYVINWVKQKPGQGLEWIGLINPYNDGTKYNEKFKVKATLTSDKSSSTAYMELSSLTSEDSAVYYCASYYYGSRYYFDYWGQGTTLTVSS
VL: DIQMTQSSSYLSVSLGGRVTITCKASDHINNWLAWYQQKPGNAPRLLISGATSLETGVPSRFSGSGSGKDYTLSITSLQTEDVATYYCQQYWSIPLTFGAGTKLELKR
modifications: DVD-Ig outer
B2: DVD509 DLL4 arm (antibody, V domains shown)
VH: B1 VH
VL: B1 VL
modifications: DVD-Ig outer
B3: DVD487 DLL4 arm (antibody, V domains shown)
VH: B1 VH
VL: B1 VL
modifications: DVD-Ig outer
B4: DVD489 DLL4 arm (antibody, V domains shown)
VH: B1 VH
VL: B1 VL
modifications: DVD-Ig outer
B5: DVD486 DLL4 arm (antibody)
chain 1: EVQLVESGGGLVQPGGSLRLSCAASGFTFTDNWISWVRQAPGKGLEWVGYISPNSGFTYYADSVKGRFTISADTSKNTAYLQMNSLRAEDTAVYYCARDNFGGYFDYWGQGTLVTVSS
chain 2: DIQMTQSPSSLSASVGDRVTITCRASQDVSTAVAWYQQKPGKAPKLLIYSASFLYSGVPSRFSGSGSGTDFTLTISSLQPEDFATTYYCQQSYTGTVTFGQGTKVEIKR
modifications: DVD-Ig inner
B6: DVD470 DLL4 arm (antibody)
chain 1: B5 chain 1
chain 2: B5 chain 2
modifications: DVD-Ig inner
B7: DVD467 DLL4 arm (antibody)
chain 1: B5 chain 1
chain 2: B5 chain 2
modifications: DVD-Ig outer
B8: DVD485 DLL4 arm (antibody)
chain 1: B5 chain 1
chain 2: B5 chain 2
modifications: DVD-Ig outer
B9: DVD468 DLL4 arm (antibody)
chain 1: B5 chain 1
chain 2: B5 chain 2
modifications: DVD-Ig inner
B10: DVD484 DLL4 arm (antibody)
chain 1: B5 chain 1
chain 2: B5 chain 2
modifications: DVD-Ig inner
B11: DVD477 DLL4 arm (antibody)
chain 1: B5 chain 1
chain 2: B5 chain 2
modifications: DVD-Ig outer
B12: DVD519 DLL4 arm (antibody, V domains shown)
VH: EVQLQQSGPELEKPGASVKISCKASGYSFTGYNMNWVKQSNGKSLEWIGNIDPYFGGTNYNQKFKGKATLTVDKSSSTAYMQLKSLTSEDSAVYYCARNYDYDGGCFDYWGQGTTLTVSS
VL: QAVVTQESALTTSPGETVTLTCRSSTGAVTTSNYANWVQEKPDHLFTGLIGGTNNRAPGVPARFSGSLIGDKAALTITGAQTEDEAIYFCALWYSNHWVFGGGTKLTVLG
modifications: DVD-Ig outer
B13: DVD515 DLL4 arm (antibody, V domains shown)
VH: B12 VH
VL: B12 VL
modifications: DVD-Ig outer
B14: DVD512 DLL4 arm (antibody, V domains shown)
VH: B12 VH
VL: B12 VL
modifications: DVD-Ig inner
B15: DVD529 DLL4 arm (antibody, V domains shown)
VH: B12 VH
VL: B12 VL
modifications: DVD-Ig outer
B16: DVD521 DLL4 arm (antibody, V domains shown)
VH: B12 VH
VL: B12 VL
modifications: DVD-Ig outer
B17: DVD458 DLL4 arm (antibody, V domains shown)
VH: QVQLVQSGAEVKKPGASVKISCKASGYSFTAYYIHWVKQAPGQGLEWIGYISSYNGATNYNQKFKGRVTFTTDTSTSTAYMELRSLRSDDTAVYYCARDYDYDVGMDYWGQGTLVTVSS
VL: DIVMTQSPDSLAVSLGERATISCRASESVDNYGISFMKWFQQKPGQPPKLLIYAASNQGSGVPDRFSGSGSGTDFTLTISSLQAEDVAVYYCQQSKEVPWTFGGGTKVEIKR
modifications: DVD-Ig inner
B18: DVD460 DLL4 arm (antibody, V domains shown)
VH: B17 VH
VL: B17 VL
modifications: DVD-Ig inner
B19: DVD464 DLL4 arm (antibody, V domains shown)
VH: B17 VH
VL: B17 VL
modifications: DVD-Ig inner
B20: DVD461 DLL4 arm (antibody, V domains shown)
VH: B17 VH
VL: B17 VL
modifications: DVD-Ig outer
B21: DVD445 DLL4 arm (antibody, V domains shown)
VH: B17 VH
VL: B17 VL
modifications: DVD-Ig outer
B22: DVD452 DLL4 arm (antibody, V domains shown)
VH: B17 VH
VL: B17 VL
modifications: DVD-Ig inner

DLL4, sequence (Q9NR61 27-524): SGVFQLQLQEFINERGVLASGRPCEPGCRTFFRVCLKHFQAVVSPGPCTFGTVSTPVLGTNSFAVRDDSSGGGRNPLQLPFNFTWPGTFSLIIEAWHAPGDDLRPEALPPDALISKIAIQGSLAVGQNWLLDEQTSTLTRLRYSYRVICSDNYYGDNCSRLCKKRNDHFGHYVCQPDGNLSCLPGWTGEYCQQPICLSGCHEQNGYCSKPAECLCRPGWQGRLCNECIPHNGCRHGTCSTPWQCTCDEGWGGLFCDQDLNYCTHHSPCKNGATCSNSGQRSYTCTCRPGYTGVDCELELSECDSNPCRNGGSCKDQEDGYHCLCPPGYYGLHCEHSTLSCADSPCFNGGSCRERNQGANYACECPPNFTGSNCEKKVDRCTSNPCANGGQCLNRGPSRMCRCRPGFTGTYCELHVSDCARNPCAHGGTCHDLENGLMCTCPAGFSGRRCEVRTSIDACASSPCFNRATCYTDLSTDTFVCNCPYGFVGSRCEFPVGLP

The assay has as its target DLL4 (human, UniProt Q9NR61). Kind of assay: ELISA.
On to B1, for which the EC50 was found to be 0.53 nM.
The figure for B2 is 0.21 nM; for B3 it is 0.14 nM; for B4 it is 0.62 nM.
In turn, B5 yielded an EC50 of 0.59 nM.
On to B6, for which the EC50 turned out to be 0.19 nM.
On to B7, for which the EC50 is 0.54 nM.
As to B8, the EC50 is 1.41 nM.
The figure for B9 is 2.28 nM.
The figure for B10 is 1.75 nM.
The same measure for B11: 0.69 nM.
B12 showed an EC50 of 1.53 nM.
The figure for B13 is 0.2 nM; for B14 it is 1.71 nM.
In the case of B15, it took 0.1 nM to reach a half-maximal effect (EC50).
The molecule B16 registered a concentration for a half-maximal effect (EC50) of 0.26 nM.
The figure for B17 is 1.54 nM; for B18 it is 0.64 nM; for B19 it is 0.8 nM.
The same measure for B20: 0.52 nM; for B21: 0.17 nM.
The figure for B22 is 0.34 nM.

Source of the values: patent US9029508 (dated 2015).
